The RNAGym collection of RNA variant scans (doi:10.1101/gr.219683.116)

B1: mRNA-splicing (parent)
chain: AGUUGCUGCUGGGAGCUCCAGCACAGUGAAAUGGACAGAAGGGCAGAGCAA

Variants of: B1
Test: exon inclusion enrichment index; higher = more inclusion; WT1 exon 5 minigene, HEK293

Point of comparison: G5C C6A U7C G8A U10A C19A, “exon inclusion enrichment index” value 0.0348. Against it:
- G5C C6A U7C G8A U10A G43A C44G — higher, 0.71
- G5C C6A U7C G8A U10A G43A C44A — higher, 0.532
- G5C C6A U7C G8A U10A C24U — lower, 0.0213
- G5C C6A U7C G8A U10A C24A — higher, 0.105
- G5C C6A U7C G8A U10A C24G — higher, 0.119
- G5C C6A U7C G8A U10A G33C G34A — lower, 0.0324
- G5C C6A U7C G8A U10A G33C G34U — higher, 0.0659
- G5C C6A U7C G8A U10A G33C G34C — lower, 0.0275
- G5C C6A U7C G8U C9U U10A — lower, 0.0134
- G5C C6G G8C U10C — higher, 3.08
- G5C C6A U7C G8A U10A C44G A45G — lower, 0.00762
- G5C C6A U7C G8A U10A C44G A45C — higher, 0.204
- G5C C6A U7C G8A U10A C44G A45U — higher, 0.109
- G5C C6A U7C G8A U10A G28C A29U — higher, 0.0485
- G5C C6A U7C G8A U10A G28C A29C — higher, 0.0814
- G5C C6A U7C G8A U10A G28C A29G — higher, 0.241
- G5C C6A U7C G8A U10A G12A G13U — lower, 0.016
- G5C C6A U7C G8A U10A G12A G13C — higher, 0.0982
- G5C C6A U7C G8A U10A G12A G13A — higher, 0.114
- G5C C6A U7C G8A U10A G15C C16U — higher, 0.0687
- G5C C6A U7C G8A U10A G15C C16A — higher, 0.0594
- G5C C6A U7C G8A U10A G15C C16G — higher, 0.0998
- G5C C6A U7G G8A U10A — lower, 0.0223
- G5C C6A U7C G8A U10A C44U — lower, 0.0254
- G5C C6A U7C G8A U10A C44G — higher, 0.198
- G5C C6A U7C G8A U10A C44A — higher, 0.477
- G5C C6A U7C G8A U10A G41U G42U — higher, 0.0854
- G5C C6A U7C G8A U10A G41U G42A — lower, 0.0336
- G5C C6A U7C G8A U10A G41U G42C — higher, 0.369
- G5C C6A U7C G8A U10A U27C G28U — higher, 0.0768
- G5C C6A U7C G8A U10A U27C G28C — higher, 0.163
- G5C C6A U7C G8A U10A U27C G28A — higher, 0.142
- G5C C6A U7C G8A U10A G26U U27G — higher, 0.355
- G5C C6A U7C G8A U10A G26U U27A — lower, 0.0285
- G5C C6A U7C G8A U10A G26U U27C — higher, 0.613
- G5C C6A U7C G8A U10A U17C C18G — higher, 0.166
- G5C C6A U7C G8A U10A U17C C18A — higher, 0.063
- G5C C6A U7C G8A U10A U17C C18U — higher, 0.0619
- G5C C6A U7C G8A U10A G12C G13U — lower, 0.0133
- G5C C6A U7C G8A U10A G12C G13A — higher, 0.181
- G5C C6A U7C G8A U10A G12C G13C — higher, 0.0502
- G5C C6A U7C G8A U10A C22A A23U — higher, 0.0806
- G5C C6A U7C G8A U10A C22A A23C — higher, 0.364
- G5C C6A U7C G8A U10A C22A A23G — higher, 0.124
- G5C C6A U7C G8A U10A U32G G33C — higher, 0.0862
- G5C C6A U7C G8A U10A U32G G33U — lower, 0.009
- G5C C6A U7C G8A U10A U32G G33A — lower, 0.00787
- G5C C6G G8U U10C — higher, 2.67
- G5C C6G U7A C9A U10A — higher, 0.95
- G5C C6A U7C G8A U10A G48U — higher, 0.218
- G5C C6A U7C G8A U10A G48A — higher, 0.25
- G5C C6A U7C G8A U10A G48C — higher, 0.213
- G5C C6A U7C G8A U10A G26U — higher, 0.091
- G5C C6A U7C G8A U10A G26A — higher, 0.156
- G5C C6A U7C G8A U10A G26C — higher, 0.141
- G5C C6A U7C G8C C9A U10A — higher, 0.741
- G5C C6A U7C G8A U10A G46U A47U — higher, 0.206
- G5C C6A U7C G8A U10A G46U A47G — higher, 0.118
- G5C C6A U7C G8A U10A G46U A47C — higher, 0.501
- G5C C6A U7C G8A U10A G26A U27A — higher, 0.131
- G5C C6A U7C G8A U10A G26A U27C — higher, 0.555
- G5C C6A U7C G8A U10A G26A U27G — higher, 0.258
- G5C C6A U7C G8A U10A G46U — higher, 0.0644
- G5C C6A U7C G8A U10A G46C — higher, 0.0718
- G5C C6A U7C G8A U10A G46A — higher, 0.143
- G5C C6A U7C G8A U10A G26C U27A — higher, 0.076
- G5C C6A U7C G8A U10A G26C U27G — higher, 0.537
- G5C C6A U7C G8A U10A G26C U27C — higher, 0.54
- G5C C6A U7C G8A U10A G12A — higher, 0.208
- G5C C6A U7C G8A U10A G12C — higher, 0.365
- G5C C6A U7C G8A U10A G12U — lower, 0.0134
- G5C C6A U7C G8A U10A C19G — higher, 0.078
- G5C C6A U7C G8A U10A C19U — lower, 0.0124
- G5C C6A U7C G8U U10A — higher, 0.146
- G5C C6A U7G G8U U10A — lower, 0.00932
- G5C C6A U7C G8A U10A C16G — higher, 0.043
- G5C C6A U7C G8A U10A C16U — higher, 0.0868
- G5C C6A U7C G8A U10A C16A — higher, 0.0973
- G5C C6A U7C G8A U10A G13U A14U — higher, 0.0352
- G5C C6A U7C G8A U10A G13U A14C — higher, 0.0603
- G5C C6A U7C G8A U10A G13U A14G — higher, 0.0515
- G5C C6A U7C G8A U10A U17G C18A — higher, 0.109
- G5C C6A U7C G8A U10A U17G C18U — higher, 0.0504
- G5C C6A U7C G8A U10A U17G C18G — higher, 0.159
- G5C C6A U7C G8A U10A G15U C16A — higher, 0.0461
- G5C C6A U7C G8A U10A G15U C16U — higher, 0.0659
- G5C C6A U7C G8A U10A G15U C16G — lower, 0.018
- G5C C6G G8A U10A — higher, 0.226
- G5C C6G G8A U10C — higher, 2.37
- G5C C6A U7C G8A U10A G41A G42U — higher, 0.105
- G5C C6A U7C G8A U10A G41A G42C — higher, 0.264
- G5C C6A U7C G8A U10A G41A G42A — higher, 0.101
- G5C C6A U7C G8A U10A C18G C19U — lower, 0.00896
- G5C C6A U7C G8A U10A C18G C19G — higher, 0.186
- G5C C6A U7C G8A U10A C18G C19A — higher, 0.143
- G5C C6G — lower, 0.0268
- G5C C6A U7C G8A U10A C24G A25C — higher, 0.71
- G5C C6A U7C G8A U10A C24G A25U — higher, 0.184
- G5C C6A U7C G8A U10A C24G A25G — lower, 0.034
- G5C C6A U7C G8A U10A U27G G28U — lower, 0.00217
- G5C C6A U7C G8A U10A U27G G28A — higher, 0.122
- G5C C6A U7C G8A U10A U27G G28C — lower, 0.0314
- G5C C6A U7C G8A U10A G46C A47C — higher, 0.209
- G5C C6A U7C G8A U10A G46C A47G — higher, 0.199
- G5C C6A U7C G8A U10A G46C A47U — higher, 0.141
- G5C C6A U7C G8A U10A C16G U17C — lower, 0.0308
- G5C C6A U7C G8A U10A C16G U17G — lower, 0.00731
- G5C C6A U7C G8A U10A C16G U17A — higher, 0.181
- G5C C6A U7C G8A U10A G28A — lower, 0.0118
- G5C C6A U7C G8A U10A G28U — lower, 0.00934
- G5C C6A U7C G8A U10A G28C — higher, 0.0496
- G5C C6G G8C C9U U10C — higher, 3.14
- G5C C6A U7C G8A U10A G11C G12C — higher, 0.382
- G5C C6A U7C G8A U10A G11C G12A — higher, 0.0929
- G5C C6A U7C G8A U10A G11C G12U — higher, 0.0425
- G5C C6A U7C G8A U10A C24U A25C — higher, 0.98
- G5C C6A U7C G8A U10A C24U A25G — higher, 0.334
- G5C C6A U7C G8A U10A C24U A25U — higher, 0.151
- G5C C6A U7C G8A U10A G11U G12A — higher, 0.0375
- G5C C6A U7C G8A U10A G11U G12C — higher, 0.543
- G5C C6A U7C G8A U10A G11U G12U — higher, 0.037
- G5C C6A U7C G8A U10A G34U A35G — lower, 0.0186
- G5C C6A U7C G8A U10A G34U A35U — lower, 0.00489
- G5C C6A U7C G8A U10A G34U A35C — lower, 0.0109
- G5C C6A U7C G8A U10A G33A G34C — lower, 0.0321
- G5C C6A U7C G8A U10A G33A G34A — lower, 0.00429
- G5C C6A U7C G8A U10A G33A G34U — lower, 0.00646
- G5C C6A U7C G8A U10A G15A — higher, 0.0449
- G5C C6A U7C G8A U10A G15U — higher, 0.098
- G5C C6A U7C G8A U10A G15C — higher, 0.0588
- G5C C6A U7C G8A U10A C22U A23C — higher, 0.0379
- G5C C6A U7C G8A U10A C22U A23U — higher, 0.0622
- G5C C6A U7C G8A U10A C22U A23G — higher, 0.114
- G5C C6A U7C G8A U10A G34C A35U — lower, 0.0152
- G5C C6A U7C G8A U10A G34C A35C — lower, 0.0037
- G5C C6A U7C G8A U10A G34C A35G — higher, 0.0658
- G5C C6A U7C G8A U10A C19U A20G — lower, 0.0251
- G5C C6A U7C G8A U10A C19U A20U — lower, 0.0111
- G5C C6A U7C G8A U10A C19U A20C — higher, 0.0561
- G5C C6A U7C G8A U10A C24A A25U — higher, 0.146
- G5C C6A U7C G8A U10A C24A A25C — higher, 0.742
- G5C C6A U7C G8A U10A C24A A25G — higher, 0.156
- G5C C6A U7C G8A U10A G43U C44A — lower, 0.00933
- G5C C6A U7C G8A U10A G43U C44G — higher, 0.112
- G5C C6A U7C G8A U10A G43U C44U — lower, 0.0172
- G5C C6A U7C U10A — higher, 0.259
- G5C C6A U7C U10C — higher, 3.16
- G5C C6A U7C G8U C9A U10A — higher, 0.0885
- G5C C6A U7C G8A U10A C36G A37U — higher, 0.0414
- G5C C6A U7C G8A U10A C36G A37G — lower, 0.00352
- G5C C6A U7C G8A U10A C36G A37C — lower, 0.0273
- G5C C6A U7G U10A — lower, 0.0115
- G5C C6A U7G U10C — higher, 0.429
- G5C C6A U7C G8A U10A G33U G34C — lower, 0.00585
- G5C C6A U7C G8A U10A G33U G34U — lower, 0.00723
- G5C C6A U7C G8A U10A G33U G34A — lower, 0.0098
- G5C C6A U7C G8A U10A U32A G33A — lower, 0.0122
- G5C C6A U7C G8A U10A U32A G33U — higher, 0.0392
- G5C C6A U7C G8A U10A U32A G33C — higher, 0.174
- G5C C6A U7C G8A U10A U27A G28A — higher, 0.112
- G5C C6A U7C G8A U10A U27A G28C — higher, 0.152
- G5C C6A U7C G8A U10A U27A G28U — higher, 0.0378
- G5C C6A U7C G8C U10A — higher, 0.494
- G5C C6A U7C G8A U10A G13C A14C — higher, 0.145
- G5C C6A U7C G8A U10A G13C A14G — higher, 0.278
- G5C C6A U7C G8A U10A G13C A14U — higher, 0.136
